T1: human FcγRIIb (human, UniProt P31994 43-217)
T1 construct: also called FcγIIB; FcγRIIb extracellular region
T1 sequence: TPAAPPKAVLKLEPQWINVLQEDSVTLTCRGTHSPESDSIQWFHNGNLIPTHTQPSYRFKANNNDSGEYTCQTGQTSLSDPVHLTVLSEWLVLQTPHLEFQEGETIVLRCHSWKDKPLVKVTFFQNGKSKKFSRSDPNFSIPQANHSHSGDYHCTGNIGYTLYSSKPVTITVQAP

T2: human FcγRIIa type R (human, UniProt P12318 36-217)
T2 construct: also called Fcγ RIIaR; FcγRIIa(R)
T2 chain: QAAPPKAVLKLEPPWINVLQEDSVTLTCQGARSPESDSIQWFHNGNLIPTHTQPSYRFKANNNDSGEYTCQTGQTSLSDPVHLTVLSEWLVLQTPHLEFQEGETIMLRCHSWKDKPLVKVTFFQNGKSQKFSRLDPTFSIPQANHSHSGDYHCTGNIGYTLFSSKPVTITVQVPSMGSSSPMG


Tests used:
human FcγRIIb = target: T1, human FcγRIIb; assay: SPR (Biacore), antibody captured on chip, FcγR as analyte; binding amount divided by that of IL6R-F652/IL6R-L, times 100
human FcγRIIa type R = target: T2, human FcγRIIa type R; assay: as above

Binder	relative binding activity for FcγRIIb (human FcγRIIb)	relative binding activity for FcγRIIaR (human FcγRIIa type R)
IL6R-F652/IL6R-L (antibody, human IgG1, Anti-human IL-6 receptor IgG1 antibody; H chain is IL6R-F11 (M252Y/N434Y in IL6R-G1d) with P238D (EU numbering); Control antibody of the PD variants; copies: 2 + 2) heavy: QVQLQESGPGLVKPSETLSLTCAVSGHSISHDHAWSWVRQPPGEGLEWIGFISYSGITNYNPSLQGRVTISRDNSKNTLYLQMNSLRAEDTAVYYCARSLARTTAMDYWGEGTLVTVSSASTKGPSVFPLAPSSKSTSGGTAALGCLVKDYFPEPVTVSWNSGALTSGVHTFPAVLQSSGLYSLSSVVTVPSSSLGTQTYICNVNHKPSNTKVDKKVEPKSCDKTHTCPPCPAPELLGGDSVFLFPPKPKDTLYISRTPEVTCVVVDVSHEDPEVKFNWYVDGVEVHNAKTKPREEQYNSTYRVVSVLTVLHQDWLNGKEYKCKVSNKALPAPIEKTISKAKGQPREPQVYTLPPSRDELTKNQVSLTCLVKGFYPSDIAVEWESNGQPENNYKTTPPVLDSDGSFFLYSKLTVDKSRWQQGNVFSCSVMHEALHYHYTQKSLSLSP light: DIQMTQSPSSLSASVGDRVTITCRASQDISSYLNWYQQKPGKAPKLLIYYTSRLHSGVPSRFSGSGSGTDFTFTISSLQPEDIATYYCQQGNTLPYTFGQGTKVEIK	100 % of the binding amount of IL6R-F652/IL6R-L	100 % of the binding amount of IL6R-F652/IL6R-L
IL6R-PD086/IL6R-L (antibody, human IgG1, PD variant: P238D/G237L introduced into IL6R-F11 (EU numbering); copies: 2 + 2) heavy: QVQLQESGPGLVKPSETLSLTCAVSGHSISHDHAWSWVRQPPGEGLEWIGFISYSGITNYNPSLQGRVTISRDNSKNTLYLQMNSLRAEDTAVYYCARSLARTTAMDYWGEGTLVTVSSASTKGPSVFPLAPSSKSTSGGTAALGCLVKDYFPEPVTVSWNSGALTSGVHTFPAVLQSSGLYSLSSVVTVPSSSLGTQTYICNVNHKPSNTKVDKKVEPKSCDKTHTCPPCPAPELLGLDSVFLFPPKPKDTLYISRTPEVTCVVVDVSHEDPEVKFNWYVDGVEVHNAKTKPREEQYNSTYRVVSVLTVLHQDWLNGKEYKCKVSNKALPAPIEKTISKAKGQPREPQVYTLPPSRDELTKNQVSLTCLVKGFYPSDIAVEWESNGQPENNYKTTPPVLDSDGSFFLYSKLTVDKSRWQQGNVFSCSVMHEALHYHYTQKSLSLSP light: DIQMTQSPSSLSASVGDRVTITCRASQDISSYLNWYQQKPGKAPKLLIYYTSRLHSGVPSRFSGSGSGTDFTFTISSLQPEDIATYYCQQGNTLPYTFGQGTKVEIK	112 % of the binding amount of IL6R-F652/IL6R-L	268 % of the binding amount of IL6R-F652/IL6R-L
IL6R-PD087/IL6R-L (antibody, human IgG1, PD variant: P238D/G237M introduced into IL6R-F11 (EU numbering); copies: 2 + 2) heavy: QVQLQESGPGLVKPSETLSLTCAVSGHSISHDHAWSWVRQPPGEGLEWIGFISYSGITNYNPSLQGRVTISRDNSKNTLYLQMNSLRAEDTAVYYCARSLARTTAMDYWGEGTLVTVSSASTKGPSVFPLAPSSKSTSGGTAALGCLVKDYFPEPVTVSWNSGALTSGVHTFPAVLQSSGLYSLSSVVTVPSSSLGTQTYICNVNHKPSNTKVDKKVEPKSCDKTHTCPPCPAPELLGMDSVFLFPPKPKDTLYISRTPEVTCVVVDVSHEDPEVKFNWYVDGVEVHNAKTKPREEQYNSTYRVVSVLTVLHQDWLNGKEYKCKVSNKALPAPIEKTISKAKGQPREPQVYTLPPSRDELTKNQVSLTCLVKGFYPSDIAVEWESNGQPENNYKTTPPVLDSDGSFFLYSKLTVDKSRWQQGNVFSCSVMHEALHYHYTQKSLSLSP light: DIQMTQSPSSLSASVGDRVTITCRASQDISSYLNWYQQKPGKAPKLLIYYTSRLHSGVPSRFSGSGSGTDFTFTISSLQPEDIATYYCQQGNTLPYTFGQGTKVEIK	109 % of the binding amount of IL6R-F652/IL6R-L	196 % of the binding amount of IL6R-F652/IL6R-L
IL6R-PD080/IL6R-L (antibody, PD variant: P238D/G237D introduced into IL6R-F11 (EU numbering); copies: 2 + 2) heavy: QVQLQESGPGLVKPSETLSLTCAVSGHSISHDHAWSWVRQPPGEGLEWIGFISYSGITNYNPSLQGRVTISRDNSKNTLYLQMNSLRAEDTAVYYCARSLARTTAMDYWGEGTLVTVSSASTKGPSVFPLAPSSKSTSGGTAALGCLVKDYFPEPVTVSWNSGALTSGVHTFPAVLQSSGLYSLSSVVTVPSSSLGTQTYICNVNHKPSNTKVDKKVEPKSCDKTHTCPPCPAPELLGDDSVFLFPPKPKDTLYISRTPEVTCVVVDVSHEDPEVKFNWYVDGVEVHNAKTKPREEQYNSTYRVVSVLTVLHQDWLNGKEYKCKVSNKALPAPIEKTISKAKGQPREPQVYTLPPSRDELTKNQVSLTCLVKGFYPSDIAVEWESNGQPENNYKTTPPVLDSDGSFFLYSKLTVDKSRWQQGNVFSCSVMHEALHYHYTQKSLSLSP light: DIQMTQSPSSLSASVGDRVTITCRASQDISSYLNWYQQKPGKAPKLLIYYTSRLHSGVPSRFSGSGSGTDFTFTISSLQPEDIATYYCQQGNTLPYTFGQGTKVEIK	127 % of the binding amount of IL6R-F652/IL6R-L	222 % of the binding amount of IL6R-F652/IL6R-L
IL6R-PD082/IL6R-L (antibody, human IgG1, PD variant: P238D/G237F introduced into IL6R-F11 (EU numbering); copies: 2 + 2) heavy: QVQLQESGPGLVKPSETLSLTCAVSGHSISHDHAWSWVRQPPGEGLEWIGFISYSGITNYNPSLQGRVTISRDNSKNTLYLQMNSLRAEDTAVYYCARSLARTTAMDYWGEGTLVTVSSASTKGPSVFPLAPSSKSTSGGTAALGCLVKDYFPEPVTVSWNSGALTSGVHTFPAVLQSSGLYSLSSVVTVPSSSLGTQTYICNVNHKPSNTKVDKKVEPKSCDKTHTCPPCPAPELLGFDSVFLFPPKPKDTLYISRTPEVTCVVVDVSHEDPEVKFNWYVDGVEVHNAKTKPREEQYNSTYRVVSVLTVLHQDWLNGKEYKCKVSNKALPAPIEKTISKAKGQPREPQVYTLPPSRDELTKNQVSLTCLVKGFYPSDIAVEWESNGQPENNYKTTPPVLDSDGSFFLYSKLTVDKSRWQQGNVFSCSVMHEALHYHYTQKSLSLSP light: DIQMTQSPSSLSASVGDRVTITCRASQDISSYLNWYQQKPGKAPKLLIYYTSRLHSGVPSRFSGSGSGTDFTFTISSLQPEDIATYYCQQGNTLPYTFGQGTKVEIK	108 % of the binding amount of IL6R-F652/IL6R-L	380 % of the binding amount of IL6R-F652/IL6R-L
IL6R-PD042/IL6R-L (antibody, human IgG1, PD variant: P238D/L234W introduced into IL6R-F11 (EU numbering); copies: 2 + 2) heavy: QVQLQESGPGLVKPSETLSLTCAVSGHSISHDHAWSWVRQPPGEGLEWIGFISYSGITNYNPSLQGRVTISRDNSKNTLYLQMNSLRAEDTAVYYCARSLARTTAMDYWGEGTLVTVSSASTKGPSVFPLAPSSKSTSGGTAALGCLVKDYFPEPVTVSWNSGALTSGVHTFPAVLQSSGLYSLSSVVTVPSSSLGTQTYICNVNHKPSNTKVDKKVEPKSCDKTHTCPPCPAPEWLGGDSVFLFPPKPKDTLYISRTPEVTCVVVDVSHEDPEVKFNWYVDGVEVHNAKTKPREEQYNSTYRVVSVLTVLHQDWLNGKEYKCKVSNKALPAPIEKTISKAKGQPREPQVYTLPPSRDELTKNQVSLTCLVKGFYPSDIAVEWESNGQPENNYKTTPPVLDSDGSFFLYSKLTVDKSRWQQGNVFSCSVMHEALHYHYTQKSLSLSP light: DIQMTQSPSSLSASVGDRVTITCRASQDISSYLNWYQQKPGKAPKLLIYYTSRLHSGVPSRFSGSGSGTDFTFTISSLQPEDIATYYCQQGNTLPYTFGQGTKVEIK	106 % of the binding amount of IL6R-F652/IL6R-L	240 % of the binding amount of IL6R-F652/IL6R-L
IL6R-PD079/IL6R-L (antibody, human IgG1, PD variant: P238D/G237A introduced into IL6R-F11 (EU numbering); copies: 2 + 2) heavy: QVQLQESGPGLVKPSETLSLTCAVSGHSISHDHAWSWVRQPPGEGLEWIGFISYSGITNYNPSLQGRVTISRDNSKNTLYLQMNSLRAEDTAVYYCARSLARTTAMDYWGEGTLVTVSSASTKGPSVFPLAPSSKSTSGGTAALGCLVKDYFPEPVTVSWNSGALTSGVHTFPAVLQSSGLYSLSSVVTVPSSSLGTQTYICNVNHKPSNTKVDKKVEPKSCDKTHTCPPCPAPELLGADSVFLFPPKPKDTLYISRTPEVTCVVVDVSHEDPEVKFNWYVDGVEVHNAKTKPREEQYNSTYRVVSVLTVLHQDWLNGKEYKCKVSNKALPAPIEKTISKAKGQPREPQVYTLPPSRDELTKNQVSLTCLVKGFYPSDIAVEWESNGQPENNYKTTPPVLDSDGSFFLYSKLTVDKSRWQQGNVFSCSVMHEALHYHYTQKSLSLSP light: DIQMTQSPSSLSASVGDRVTITCRASQDISSYLNWYQQKPGKAPKLLIYYTSRLHSGVPSRFSGSGSGTDFTFTISSLQPEDIATYYCQQGNTLPYTFGQGTKVEIK	101 % of the binding amount of IL6R-F652/IL6R-L	138 % of the binding amount of IL6R-F652/IL6R-L
IL6R-PD043/IL6R-L (antibody, human IgG1, PD variant: P238D/L234Y introduced into IL6R-F11 (EU numbering); copies: 2 + 2) heavy: QVQLQESGPGLVKPSETLSLTCAVSGHSISHDHAWSWVRQPPGEGLEWIGFISYSGITNYNPSLQGRVTISRDNSKNTLYLQMNSLRAEDTAVYYCARSLARTTAMDYWGEGTLVTVSSASTKGPSVFPLAPSSKSTSGGTAALGCLVKDYFPEPVTVSWNSGALTSGVHTFPAVLQSSGLYSLSSVVTVPSSSLGTQTYICNVNHKPSNTKVDKKVEPKSCDKTHTCPPCPAPEYLGGDSVFLFPPKPKDTLYISRTPEVTCVVVDVSHEDPEVKFNWYVDGVEVHNAKTKPREEQYNSTYRVVSVLTVLHQDWLNGKEYKCKVSNKALPAPIEKTISKAKGQPREPQVYTLPPSRDELTKNQVSLTCLVKGFYPSDIAVEWESNGQPENNYKTTPPVLDSDGSFFLYSKLTVDKSRWQQGNVFSCSVMHEALHYHYTQKSLSLSP light: DIQMTQSPSSLSASVGDRVTITCRASQDISSYLNWYQQKPGKAPKLLIYYTSRLHSGVPSRFSGSGSGTDFTFTISSLQPEDIATYYCQQGNTLPYTFGQGTKVEIK	112 % of the binding amount of IL6R-F652/IL6R-L	175 % of the binding amount of IL6R-F652/IL6R-L
IL6R-PD081/IL6R-L (antibody, human IgG1, PD variant: P238D/G237E introduced into IL6R-F11 (EU numbering); copies: 2 + 2) heavy: QVQLQESGPGLVKPSETLSLTCAVSGHSISHDHAWSWVRQPPGEGLEWIGFISYSGITNYNPSLQGRVTISRDNSKNTLYLQMNSLRAEDTAVYYCARSLARTTAMDYWGEGTLVTVSSASTKGPSVFPLAPSSKSTSGGTAALGCLVKDYFPEPVTVSWNSGALTSGVHTFPAVLQSSGLYSLSSVVTVPSSSLGTQTYICNVNHKPSNTKVDKKVEPKSCDKTHTCPPCPAPELLGEDSVFLFPPKPKDTLYISRTPEVTCVVVDVSHEDPEVKFNWYVDGVEVHNAKTKPREEQYNSTYRVVSVLTVLHQDWLNGKEYKCKVSNKALPAPIEKTISKAKGQPREPQVYTLPPSRDELTKNQVSLTCLVKGFYPSDIAVEWESNGQPENNYKTTPPVLDSDGSFFLYSKLTVDKSRWQQGNVFSCSVMHEALHYHYTQKSLSLSP light: DIQMTQSPSSLSASVGDRVTITCRASQDISSYLNWYQQKPGKAPKLLIYYTSRLHSGVPSRFSGSGSGTDFTFTISSLQPEDIATYYCQQGNTLPYTFGQGTKVEIK	101 % of the binding amount of IL6R-F652/IL6R-L	117 % of the binding amount of IL6R-F652/IL6R-L
